One assay deals with T1, human LTBP2 (Homo sapiens, UniProt Q14767).
T1 construct: The portion from the 36th amino acid to the stop codon of human LTBP2; expressed in transfected cells; host or cells: 293T cells; culture supernatant mixed with cell extract
Put plainly: In vitro binding assay, FLAG-tagged DANCE constructs with Myc-tagged LTBP2. The conditions noted are these: protein solutions from 293T cells mixed on ice 1 hour, anti-FLAG precipitation, anti-Myc detection. How it is done: (§1) These were performed by methods described in “Molecular Cloning, 3rd Ed.”.
(§2) A human DANCE construct with FLAG tag (FIG. 8), a human DANCE construct with Myc tag, and a human LTBP2 construct were separately transfected to 293T cells. After cultivation in serum-free medium for 48 hours, each culture supernatant and cell extract were mixed, and this was used as the protein solution. A protein solution from the DANCE construct with FLAG tag and a protein solution from DANCE or LTBP2 with Myc tag were mixed on ice for 1 hour, and precipitated with anti-FLAG antibody, and the resulting precipitate was developed by SDS-PAGE, and detected using anti-Myc antibody or anti-FLAG antibody.

Assay [1] relates to vascular endothelial cells. As to the kind of experiment: Vascular endothelial cell adhesion assay. It counts as cell-based. From the text:
Full-length DANCE promotes the adhesion and extension of vascular endothelial cells via cell surface integrin. The present inventor has reported to date that full-length DANCE can serve as a ligand for the integrins αvβ3, αvβ5, and α9β1. Since the domain serving as the ligand is considered to be around the RGD motif of the amino-terminal domain of DANCE, each recombinant protein of a DANCE mutant wherein RGD was replaced with RGE for one-amino-acid substitution (RGE DANCE), and amino-terminal cleaved form of DANCE (ΔND DANCE) were purified, and these, along with full-length DANCE, were subjected to vascular endothelial cell adhesion assay (FIG. 13).

Another assay relates to human skin fibroblasts. Put plainly: Formation of elastic fibers in cultured human skin fibroblasts. Type of assay: cell-based. Conditions: protein added to serum-free medium at 4 μg/ml, cultured for 2 weeks. As to the method: Human fibroblasts were kindly supplied by the Department of Plastic Surgery, Kyoto University Hospital. A cover glass was placed on the bottom of a 24-well plate, on which human fibroblasts were seeded at 7.5×10^4 cells per well, and cultured in a DMEM medium supplemented with 10% FBS at 37° C. in the presence of 5% CO2. After the plate washed with PBS on Day 3, the medium was exchanged with a DMEM/F12 medium not supplemented with FBS, and purified DANCE protein, cleaved form of DANCE protein 4 μg/ml, or FBS was added. Cultivation was continued at 37° C. in the presence of 5% CO2, and the cells were fixed and immunologically stained on Day 14.
On Day 14 of cultivation, the cells were washed with 1 ml of PBS three times, after which they were fixed with 100% methanol at −20° C. for 30 minutes. After washing with PBS, the cells were subjected to blocking with a PBS containing 2% BSA at room temperature for 30 minutes, after which the cells were incubated with the polyclonal anti-elastin antibody (dilution rate 1/100) and the monoclonal anti-FLAG antibody (dilution rate 1/100) at room temperature for at least 1 hour. The cells were washed with PBS and further incubated with the anti-rabbit Alexa Fluor 488 antibody (dilution rate 1/100) and the anti-mouse Alexa Fluor 546 antibody (dilution rate 1/100) at room temperature for 1 hour. After washing with PBS, the cells were fixed with 4% para-formaldehyde at room temperature for 10 minutes and again washed with PBS, after which the sample was mounted onto a glass slide using a DAPI-containing Vectashield. Examination was performed using a confocal microscope.
Human skin fibroblasts were seeded to reach confluency; the medium was replaced with serum-free medium or a medium containing 10% fetal calf serum; the cells were cultured for 2 weeks; the formation of elastic fibers was analyzed by immunostaining with anti-elastin antibody.

The target in another assay is T2, human DANCE (Homo sapiens, UniProt Q9UBX5).
T2 construct: Myc; expressed in transfected cells; host or cells: 293T cells; culture supernatant mixed with cell extract
T2 sequence (Q9UBX5 24-448): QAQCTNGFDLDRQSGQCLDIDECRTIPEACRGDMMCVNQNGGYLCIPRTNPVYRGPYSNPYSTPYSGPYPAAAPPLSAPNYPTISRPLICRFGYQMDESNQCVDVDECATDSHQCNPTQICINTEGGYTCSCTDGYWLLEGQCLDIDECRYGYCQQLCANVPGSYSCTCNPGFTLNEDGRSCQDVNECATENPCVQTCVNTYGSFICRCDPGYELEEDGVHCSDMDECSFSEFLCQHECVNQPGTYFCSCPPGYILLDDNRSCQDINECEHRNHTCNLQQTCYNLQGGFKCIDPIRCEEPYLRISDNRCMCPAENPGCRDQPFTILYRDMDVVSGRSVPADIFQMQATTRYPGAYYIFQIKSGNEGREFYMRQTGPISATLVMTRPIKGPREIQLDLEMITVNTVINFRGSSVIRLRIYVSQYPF
Put plainly: In vitro binding assay, FLAG-tagged DANCE constructs with Myc-tagged DANCE. The conditions noted are these: protein solutions from 293T cells mixed on ice 1 hour, anti-FLAG precipitation, anti-Myc detection. As to the method: as §1, §2

These results are taken from US7906616B2, “Truncated DANCE, DANCE complex and method of using these” (Kansai Medical University, priority 2004, dated 2011).

T1 sequence (Q14767 36-1821): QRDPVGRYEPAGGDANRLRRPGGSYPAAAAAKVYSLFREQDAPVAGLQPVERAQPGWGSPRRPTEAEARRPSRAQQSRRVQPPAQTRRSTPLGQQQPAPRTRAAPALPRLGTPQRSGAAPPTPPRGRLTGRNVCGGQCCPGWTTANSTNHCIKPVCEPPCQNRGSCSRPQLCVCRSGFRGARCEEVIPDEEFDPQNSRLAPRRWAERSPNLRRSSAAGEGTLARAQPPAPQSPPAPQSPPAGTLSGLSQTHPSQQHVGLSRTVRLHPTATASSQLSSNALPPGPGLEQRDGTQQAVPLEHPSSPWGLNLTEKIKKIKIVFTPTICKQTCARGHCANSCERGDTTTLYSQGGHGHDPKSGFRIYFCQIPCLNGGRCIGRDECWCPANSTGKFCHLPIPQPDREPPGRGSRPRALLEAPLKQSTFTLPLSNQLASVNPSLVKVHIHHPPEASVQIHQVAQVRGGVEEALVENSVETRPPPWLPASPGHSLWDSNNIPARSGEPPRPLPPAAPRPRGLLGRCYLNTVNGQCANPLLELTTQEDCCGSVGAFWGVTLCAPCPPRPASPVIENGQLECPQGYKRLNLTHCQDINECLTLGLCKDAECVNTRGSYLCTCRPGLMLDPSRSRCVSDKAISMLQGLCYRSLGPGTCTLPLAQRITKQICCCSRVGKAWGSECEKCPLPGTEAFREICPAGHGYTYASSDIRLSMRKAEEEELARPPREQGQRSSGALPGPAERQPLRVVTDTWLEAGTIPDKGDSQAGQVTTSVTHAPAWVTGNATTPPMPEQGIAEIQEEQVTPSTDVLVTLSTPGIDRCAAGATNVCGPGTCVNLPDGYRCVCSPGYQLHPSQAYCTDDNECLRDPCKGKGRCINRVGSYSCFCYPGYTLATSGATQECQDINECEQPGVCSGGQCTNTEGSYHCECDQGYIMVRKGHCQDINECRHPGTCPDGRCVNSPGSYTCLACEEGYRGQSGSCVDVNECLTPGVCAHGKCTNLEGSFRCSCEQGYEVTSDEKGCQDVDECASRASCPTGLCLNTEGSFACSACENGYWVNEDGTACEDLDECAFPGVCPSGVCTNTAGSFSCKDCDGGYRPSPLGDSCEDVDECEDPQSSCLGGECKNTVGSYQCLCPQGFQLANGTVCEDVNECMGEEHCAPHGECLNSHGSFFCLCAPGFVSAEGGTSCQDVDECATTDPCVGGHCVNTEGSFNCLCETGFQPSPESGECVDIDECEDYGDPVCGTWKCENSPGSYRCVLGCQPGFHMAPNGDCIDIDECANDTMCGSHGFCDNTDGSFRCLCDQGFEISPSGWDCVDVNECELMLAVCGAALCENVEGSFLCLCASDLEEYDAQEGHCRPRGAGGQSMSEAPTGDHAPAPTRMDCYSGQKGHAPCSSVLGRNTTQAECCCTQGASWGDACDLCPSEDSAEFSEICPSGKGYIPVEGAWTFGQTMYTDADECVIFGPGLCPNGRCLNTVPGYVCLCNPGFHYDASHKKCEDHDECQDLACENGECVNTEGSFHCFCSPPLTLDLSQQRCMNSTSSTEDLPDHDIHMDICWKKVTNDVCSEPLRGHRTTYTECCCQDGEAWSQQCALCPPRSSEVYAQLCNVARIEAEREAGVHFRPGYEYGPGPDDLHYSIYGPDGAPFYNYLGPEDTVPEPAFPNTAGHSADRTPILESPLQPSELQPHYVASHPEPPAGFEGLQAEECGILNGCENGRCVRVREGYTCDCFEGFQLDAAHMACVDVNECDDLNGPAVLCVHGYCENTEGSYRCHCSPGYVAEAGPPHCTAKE

B1: ΔND DANCE: amino-terminal cleaved form of DANCE; 78th to 448th amino acids of SEQ ID NO:2 (SEQ ID NO:8) (protein, listed as Homo sapiens)
chain: GPYSNPYSTPYSGPYPAAAPPLSAPNYPTISRPLICRFGYQMDESNQCVDVDECATDSHQCNPTQICINTEGGYTCSCTDGYWLLEGQCLDIDECRYGYCQQLCANVPGSYSCTCNPGFTLNEDGRSCQDVNECATENPCVQTCVNTYGSFICRCDPGYELEEDGVHCSDMDECSFSEFLCQHECVNQPGTYFCSCPPGYILLDDNRSCQDINECEHRNHTCNLQQTCYNLQGGFKCIDPIRCEEPYLRISDNRCMCPAENPGCRDQPFTILYRDMDVVSGRSVPADIFQMQATTRYPGAYYIFQIKSGNEGREFYMRQTGPISATLVMTRPIKGPREIQLDLEMITVNTVINFRGSSVIRLRIYVSQYPF
With B1, the “binding of DANCE to LTBP2” value with human LTBP2 was “stronger binding with LTBP2 than full-length DANCE”. Moreover, the “binding to cell surface integrin” value in assay [1] (discussion statement) is recorded as “no longer binds to cell surface integrin”. The cell adhesion activity result in assay [1] (purified recombinant protein used for coating) was “absolutely no cell adhesion activity”. Moreover, the “formation of elastic fibers (anti-elastin immunostaining)” value in the assay with human skin fibroblasts is given as “the formation of elastic fibers was very little”. Besides, the “binding of DANCE to each other” value in the assay with human DANCE was “no longer binds to each other”.
